Assay results from a protein production outcome set (Wang et al. 2014).

Experiment: label from the status in PepcDB records

In the case of “MNQKISPPSQKLDGLFLLALSMAVFFVGVTEFMLSSMLGPLAQAFHTTTSGAAWLISSYAFSYAIAAPLLGYFSDRMQRRKLLLLALVLFAVDTLAIVIAPTLEIAVVLRVIGGIASAIIIPTTFALVAEVVAPQRQAGAMGQVMLGMTLGIAAGPALAGLLSDFFGWAAPFLLVSCGCVLVFLMARQRLPVQAVAPRAEGHALGWCRQWSILRPLIAKGAWNGTGVAGLLLSGEVLRQRYGFSTAQIGVSIAAFGVGLAVGNLAAGYLRRYLKRDEDMLLLVLALLVLSMSTFMLLPLPLPVALCCLGAWGAALGLGAPAGTVVLASRSGPDKGMVLSFAETFNNIAILASVPLAVRLLELKGPPATLWVLGIGLGIGAWFTVLDWFASRRSNEALPLRD”, the protein production is reported as “failed”.
For “MSPPGQHYAQADAPQRPVLVQESSYLQLSSEAAEFVTQCQICGKPCQLADEPLWTTLATTIPSTIGAMAVSSAPHLPSGSFEWLTAGRVDPGSRVVVLCPTVAHCRAVASHGADVLAVHRDPDTAEKLNRIPGVMAVCGSPESLPLNSSSFDAVLVHQGFHELAPGLALPEIARVLRPGSVLGVSWLVRDDTVPWVKRLAALLRTVDENAMSGDYGTESVHELISSKYFPEDEHTTKRLWVPVNRDSLVAMAAARPAVRALDSDARSNVLTKVAALADDSAGTSGLRLPYQLECWRAWVDHDELTTPIRPHDDGLTITL”, the protein production was “failed”.
With “MSRGPLDPRAPLYKAVQIARRRAAEEGDSSWRVVAQAVEELARRVERLYELASRHGLSKPFWLSPRVLEVLRSVEDGDKGGAIERARSLSESLIPAGLAGEYSLATGTAARVLASIIFLASAAYIGVEGIQAPSTPAAVTTLALASFALAALLAASTHYSLYLLAVSTGASLAIATAYRPVVDSYSILMALYSAVLGFAAAAYSSYTRRKFYRMLRMLERGM” the protein production was “failed”.
For “RVLEFHPLGSGLAMTEFVVGSRLMGKTLSDLALCKVEGVQVLGFKRGPEIIKAPDMSTTLEIGDLIIVVGPQDKLANKLKSL”, the protein production was “failed”.
With “MGNHFSKLGFVLAALGSAIGLGHIWRFPYMTGVSGGGAFVLLFLFLSLSVGAAMFIAEMLLGQSTQKNVTEAFKELDINPKKRWKYAGLLLVSGPLILTFYGTILGWVLYYLVSVSFNLPNNIQESEQIFTQTLQSIGLQSIGLFSVLLITGWIVSRGIKEGIEKLNLVLMPLLFATFFGLLFYAMSMDSFSKAFHFMFDFKPKDLTSQVFTYSLGQVFFSLSIGLGINITYAAVTDKTQNLLKSTIWVVLSGILISLVAGLMIFTFVFEYGANVSQGTGLIFTSLPVVFGQMGAIGILVSILFLLALAFAGITSTVALLEPSVMYLTERYQYSRFKVTWGLVALIFVVGVVLIFSLHKDYKDYLTFFEKSLFDWLDFASSTIIMPLGGMATFIFMGWVLKKEKLRLLSVHFLGPKLFATWYFLLKYITPLIVFSIWLSKIY” the protein production was “failed”.
For “MHRKPICAALAIISAATLTTSLAYGMTAVELPAGAPADKPVGKLEQVQAFYDAMPTGVTVTETGRIFVNFPRWGDKVPFTVGEVRDGKVVAYPDLAVNHENPKDPGDGLISVQSVVADGKGRVWLLDTAAPEFAAPRPQGAKLVAVDLATNKIVKRLVFPDNVILPSTYVNDMRFDFRQGSQGTVYVTDSSVSGPGAIIVMDIASGHAVRRLSGAKATSADPAFVPVVEGVPVLGDGPDGTRKPVHVAADGIALSADGKTLYFSPLSSRHLYSVATELLNDSAVNEQQLAAAVQDLGEKGASDGLEADADGAVYAGDYEHNAIRKRLPNGVWQTVAHDPRMLWPDTLSIGPDGYLYFIVNQLHRQAGFNSGHDQRKKPYSLLRVKVATAPAPTH”, the protein production was “failed”.
In the case of “LPKLREDFKMQNKSVFILGASGETGKVLLKEILGQNLFSKVTLIGRRKLTFEEEAYKNVNQEVVDFEKLDVYASAFQGHDVGFCCLGTTRSKAGAEGFVRVDRDYVLKSAELAKAGGCKHFNLLSSRGADKSSSFLYLQVKGEVEAKVEELKFDRLSVFRPGVLLCDRQESRPGEWLARKFFGSLPDSWASGYAVPVVTVVRAMLNNLVSPSSGQMELLENKAILHLGKDRDVPKL”, the protein production is reported as “not failed”.
For “MEQVSKSHENKAEEQTEGVGLLERLFKLSQHKTTVKTELMAGLTTFVTMSYIMFLNPIIMSKTGMPFDGLFLATCLGAAIATILMGMYANWPVGLAPGMGLNAFFTFSVVGSMGYSWQIALGAVFLSGVIFVLMSVTRLREWMLDSIPMSLRLAMTAGVGLFLGFIGLRFTGIVVANPDNVVALADMTHFGFGQFGPEAPALGFLSFLLIAILSYRKVFGAVLIGIAVTTFIAFAMTWVLPTDFFVVAEAAKSFAPASGFVAYKGLLAIPEFSALEPILWKADIVGAFEVALIPVIVTFLFVNIFDTAGTLMGVAERANLQDENGKIEGLSKSLKADSISSVIGTAFGCPPVTSYVESAAGVAAGGRTGLTAVTIGLLFAAGVFFLPLAQMLPGFAVDGALIYVAMLMMSSLRGLDWDDLTEYAPAVCTTVMMAFTFSIANGIAFGFITYTVLKVGAGKSSQVSNGVWALTVLFVAKFIFLN”, the protein production was “failed”.
For “MIVAWTLGIFGDDLPKGGARETGLLVHVSAGLLILAALIMRLVWRAAVPPPPPEPNEFRRWLGAFADPSARLFHYTLYALLVVVPVAGIVTQFARGEALPLLGIYEISSPWIRDRAFAHSVKEIHEIAAHALVFVAFFHAGAALIHHIVFRDNTLNRMLPRSK”, the protein production was “failed”.
For “SLMAGSFCWRMLGLVSKVGNRARCFSSVAASEEELLDFSGSELQFNSCSLHLSLHPFFNFLLGIHSCFVCKESKTDVKRCVVTQCGKFYHEACVKKYPLTVFESRGFRCPLHSCVSCHASNPSNPRPSKGKMMRCVRCPVAYHSGDACLAAGCSVIASNSIICTAHFTARKGKRHHAHVNVSWCFVCSKGGSLLCCESCPAAFHPDCLNIEMPDGSWFCNDCRAGKKLHFQDIIWVKLGNYRWWPAEVCHPKNVPPNIQKMKHEIGEFPVFFFGSKDYYWTHQARVFPYMEGDRGSRYQGVRGIGRVFKNALQEAEARFREIKLQREARETQESERKPPPYKHIKVNKPYGKVQIYTADISEIPKCNCKPTDENPCGFDSECLNRMLMFECHPQVCPAGEFCQNQCFTKRQYPETKIIKTDGKGWGLVAKRDIRKGEFVNEYVGELIDEEECMARIKHAHENDITHFYMLTIDKDRIIDAGPKGNYSRFMNHSCQPNCETLKWTVNGDTRVGLFAVCDIPAGTELTFNYNLDCLGNEKTVCRCGASNCSGFLGDRPKTSTTLSSEEKGKKTKKKTRRRRAKGEGKRQSEDECFRCGDGGQLVLCDRKFCTKAYHLSCLGLGKRPFGKWECPWHHCDVCGKPSTSFCHLCPNSFCKEHQDGTAFSCTPDGRSYCCEHDLGAASVRSTKTEKPPPEPGKPKGKRRRRRGWRRVTEGK”, the protein production was “not failed”.
For “MKWSEISIHTTEEAVEAVSHILHEAGASGVAIEDPAELTKEREQQYGEIYALNPDEYPAEGVLIKAYFPQTDSLHETIAGVKSSIDVLPSYDIEIGTGNITVNEVNEEDWATAWKKYYHPVQISDTFTIVPTWEEYTPSSPEEKIIELDPGMAFGTGTHPTTTMCIRALEKTVQPGDTIIDVGTGSGVLSIAAAKLGASSVQAYDLDPVAVESAEMNVRLNKTDDVVSVGQNSLLEGIEGPVDLIVANLLAEIILLFPEDAARVVKSGGLFITSGIIAAKEKVISEALEKAGFTIEEVLRMEDWVAIIARNA”, the protein production was “failed”.
In the case of “MNNSINHKFHHISRAEYQELLAVSRGDAVADYIIDNVSILDLINGGEISGPIVIKGRYIAGVGAEYTDAPALQRIDARGATAVPGFIDAHLHIESSMMTPVTFETATLPRGLTTVICDPHEIVNVMGEAGFAWFARCAEQARQNQYLQVSSCVPALEGCDVNGASFTLEQMLAWRDHPQVTGLAEMMDYPGVISGQNALLDKLDAFRHLTLDGHCPGLGGKELNAYITAGIENCHESYQLEEGRRKLQLGMSLMIREGSAARNLNALAPLINEFNSPQCMLCTDDRNPWEIAHEGHIDALIRRLIEQHNVPLHVAYRVASWSTARHFGLNHLGLLAPGKQADIVLLSDARKVTVQQVLVKGEPIDAQTLQAEESARLAQSAPPYGNTIARQPVSASDFALQFTPGKRYRVIDVIHNELITHSHSSVYSENGFDRDDVSFIAVLERYGQRLAPACGLLGGFGLNEGALAATVSHDSHNIVVIGRSAEEMALAVNQVIQDGGGLCVVRNGQVQSHLPLPIAGLMSTDTAQSLAEQIDALKAAARECGPLPDEPFIQMAFLSLPVIPALKLTSQGLFDGEKFAFTTLEVTELEHHHHHH”, the protein production is reported as “not failed”.
In the case of “AEMKTYSHRTMPSACTLVMCSSVESGLPGRDGRDGREGPRGEKGDPGLPGAAGQAGMPGQAGPVGPKGDNGSVGEPGPKGDTGPSGPPGPPGVPGPAGREGPLGKQGNIGPQGKPGPKGEAGPKGEVGAPGMQGSAGARGLAGPKGERGVPGERGVPGNTGAAGSAGAMGPQGSPGARGPPGLKGDKGIPGDKGAKGESGLPDVASLRQQVEALQGQVQHLQAAFSQYKKVELFPNGQSVGEKIFKTAGFVKPFTEAQLLCTQAGGQLASPRSAAENAALQQLVVAKNEAAFLSMTDSKTEGKFTYPTGESLVYSNWAPGEPNDDGGSEDCVEIFTNGKWNDRACGEKRLVVCEF”, the protein production is reported as “failed”.
For “MKTIAVLLTALLLATGCGNKESTGETASDEPEIVMMDESTSVGELPSILKEGLSNKEQDELKKQIMPILDDGLTPEQRFLNLRKDAEAGNAEAQNSLGSMYFSGEAISRDAQGKVKDKDPETAAGWFFRAAEQGHAGAQFNLGLLYFSGEGVTRDTAKAVELFTKSAEQGNIDAQNNLGVIYLMGEGVKQNTDKAIEWFEKAAEQGNEEAIKNLEAVRASQQDSKEAADKQK”, the protein production was “failed”.
With “MRAGDGKIRVPADLDAVTATGEEDHSEIDGAAVDRIWRAARHWYRAGMHPAIQLCIRHHGRVVLNRAIGHGWGNAPTDEADAEKIPVTTDTPFCVYSAAKAITATVVHMLVERGHFALDDRVCEYLPSYTSHGKHRTTIRHVLTHSAGVPFPTGPRPDVRRADDHEYAVERLGELRPLYRPGLVHIYHALTWGPLMREIVYAATGKEIREILATEILDPLGFRWTNFGVAERDVPLVAPSHATGRQLPPVIAAVFRKAIGGTVHEIIPYTNTPFFLSTILPSSNTVSTANELSRFMEILRRGGELDGVRVLSPETLRGAVTECRRLRPDFATGLMPLRWGTGFMLGSAKYGPFGRNAPAAFGHLGLVNIAVWADPERALSGGLISSGKPGRDPEAGRYGALLNAITAEIPRASSG” the protein production was “failed”.
For “MFGRCVRVKENMTYTEFVRTLSEAFSLKSTEINPIISYWMPGEMLVMIDTKRLPVYIDSQVGLNTFFMIRGRYPSLNLFVSFITTVKTLENNVSRTHGDDAESDRVSNVDENNEAVDEQDDVEDDKTDEDEEEGDNEDGDGYDDYQGDDGSMGGSTLDPTIDGSESNGEDYDYNKWNDVIVEEYGIGNVEENVILIPGEFSRLLAECTYTS”, the protein production was “failed”.
For “MSVIKLKSKLKYCHYAYDDEGYVIHMLTSNERTFFTNAYIIETKNSIVVVDTLMVNSDAILLRQYMDNINKPLIAVIITHGHPDHYNGTEIITGFKEVPIISTKGIRDCIQDTVDSKEVKWKPYFGQDWPEHKILPNQLVIDSEVVNLDGLDYSFRDLGAAESSSDLFFTLGEKRSVIFVGDVVFNNMHGFMNDGNSAQWLKVLQKLLTEIADVKLLFTGHGDPGDTHQLVQRQIDYISHYRSNLLAIIRGNQLLNDTQKQSFEQLMMANYPEFQLSSFIKAGIDAVSQELIVEQNDKP”, the protein production was “failed”.
In the case of “MNTIVVAQLQRQFQDYIVSLYQQGFLDNQFSELRKLQDEGTPDFVAEVVSLFFDDCSKLINTMSISLERPDNVDFKQVDSGVHQLKGSSSSLCFVLSVGARRVKNVCISFKECCDVQNREGYSSNSHTNCDNDIWHRCLRCLQQVDYEYKMLKTKLQDLFNVSFKLCENLLVLLLEKQILQAGGTIPQVDIN”, the protein production is reported as “failed”.
In the case of “MEYHLQTPLKFEDIEKLNAGDIVYISGEILTARDEAHARILEMEERGEELPFSLEGAVIYHCGPLMQQTESGWKVISAGPTTSGRMSKMTPPLLKTHKVRAIIGKGGMKNVADSLKSCCVYLAYTGGCAALAAELIKDVKTVHWPDLGMPEAVWILRVEKFGPLIVGIDAKGKDIFSEVREKAEKALEELQK”, the protein production is reported as “failed”.
